According to PMC4890538 (Angewandte Chemie (International ed. in English), 2015):

Columns and labels:
[1] = target: p-Akt2 (phospho serine / threonine kinase) (UniProt P31751 1-481)
[2] = target: T1, IL17-F (Interleukin member of the highly homologous IL-17 family) (UniProt Q96PD4 31-163)
T1 sequence (looked up): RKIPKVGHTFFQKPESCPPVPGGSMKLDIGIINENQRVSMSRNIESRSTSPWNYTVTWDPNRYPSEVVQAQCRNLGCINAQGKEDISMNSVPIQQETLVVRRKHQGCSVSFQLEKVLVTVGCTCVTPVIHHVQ

[3] = target: L1R, vaccinia virus L1R myristyl protein (vaccinia virus, UniProt P07612 1-250)

YYTYT [Cy(YYTYT-click)]
EC50 [1]: 122 nM

RRATS [Cy(RRATS-click)]
EC50 [2]: 66 nM

DARNI [Cy(DARNI-click)]
EC50 [3]: 875 nM
